Results as given in patent US20090041767A1, “PHARMACEUTICAL COMBINATIONS” (priority 2007, published 2009).

Biological target: mouse α5β1 (Mus musculus, UniProt P09055+P11688)
Assay: antibody binding to mouse α5β1 integrin

Sequence of mouse α5β1 (P11688 45-1053): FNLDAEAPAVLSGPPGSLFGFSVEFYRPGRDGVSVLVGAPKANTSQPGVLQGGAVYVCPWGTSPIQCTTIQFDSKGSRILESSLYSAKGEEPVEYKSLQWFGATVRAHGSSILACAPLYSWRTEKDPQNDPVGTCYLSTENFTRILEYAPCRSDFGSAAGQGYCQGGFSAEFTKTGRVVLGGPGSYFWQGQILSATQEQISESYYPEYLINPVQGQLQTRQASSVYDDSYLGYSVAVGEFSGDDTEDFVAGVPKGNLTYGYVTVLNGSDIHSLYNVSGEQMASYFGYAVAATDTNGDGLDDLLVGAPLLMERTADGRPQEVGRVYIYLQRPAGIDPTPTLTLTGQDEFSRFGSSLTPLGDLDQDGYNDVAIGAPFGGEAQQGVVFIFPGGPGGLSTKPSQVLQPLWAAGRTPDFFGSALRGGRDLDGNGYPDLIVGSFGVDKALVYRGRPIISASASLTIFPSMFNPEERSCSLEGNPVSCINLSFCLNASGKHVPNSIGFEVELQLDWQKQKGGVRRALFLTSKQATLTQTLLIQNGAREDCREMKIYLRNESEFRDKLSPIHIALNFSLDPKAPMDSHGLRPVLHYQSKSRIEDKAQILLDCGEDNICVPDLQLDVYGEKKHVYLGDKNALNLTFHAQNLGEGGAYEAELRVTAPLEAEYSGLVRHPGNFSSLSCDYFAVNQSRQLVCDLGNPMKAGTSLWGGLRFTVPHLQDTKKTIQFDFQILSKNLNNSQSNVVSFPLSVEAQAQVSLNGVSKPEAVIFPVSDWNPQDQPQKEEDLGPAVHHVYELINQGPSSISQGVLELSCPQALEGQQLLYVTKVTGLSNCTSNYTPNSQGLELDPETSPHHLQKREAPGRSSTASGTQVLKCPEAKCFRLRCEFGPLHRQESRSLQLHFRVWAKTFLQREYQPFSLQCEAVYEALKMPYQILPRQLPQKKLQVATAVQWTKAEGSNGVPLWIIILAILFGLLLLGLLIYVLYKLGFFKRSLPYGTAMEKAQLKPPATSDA
Sequence of mouse α5β1 (P09055 21-798): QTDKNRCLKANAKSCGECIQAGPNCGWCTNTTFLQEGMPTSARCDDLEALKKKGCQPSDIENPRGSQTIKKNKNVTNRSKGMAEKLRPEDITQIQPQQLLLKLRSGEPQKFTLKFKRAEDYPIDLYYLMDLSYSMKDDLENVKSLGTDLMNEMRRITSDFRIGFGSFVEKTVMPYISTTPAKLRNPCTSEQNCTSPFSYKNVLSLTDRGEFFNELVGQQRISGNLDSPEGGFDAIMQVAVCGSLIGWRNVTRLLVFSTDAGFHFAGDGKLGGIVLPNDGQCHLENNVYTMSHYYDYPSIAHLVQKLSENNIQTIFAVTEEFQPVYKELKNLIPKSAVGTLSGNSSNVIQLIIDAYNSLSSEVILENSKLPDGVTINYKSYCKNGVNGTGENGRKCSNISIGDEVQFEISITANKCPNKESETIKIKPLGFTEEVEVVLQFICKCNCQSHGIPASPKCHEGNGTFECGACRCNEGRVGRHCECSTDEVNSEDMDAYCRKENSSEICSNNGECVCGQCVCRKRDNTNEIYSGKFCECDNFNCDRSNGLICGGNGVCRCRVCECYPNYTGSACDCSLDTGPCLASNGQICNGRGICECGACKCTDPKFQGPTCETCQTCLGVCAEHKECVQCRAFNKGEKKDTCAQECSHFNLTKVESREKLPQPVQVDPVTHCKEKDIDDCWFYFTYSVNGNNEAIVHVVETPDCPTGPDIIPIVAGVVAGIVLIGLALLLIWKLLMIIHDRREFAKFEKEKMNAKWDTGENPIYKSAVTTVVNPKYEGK

- binding to mouse α5β1: binds mouse α5β1 with high affinity
B1: 339.1: monoclonal antibody that targets murine α5β1; volociximab surrogate; VH SEQ ID NO: 22, VL SEQ ID NO: 23 (antibody, V domains shown)
VH: MDIRLSLAFLVLFIKGVQCEVYLVESGGGSVQPGRSTKLSCAASEFTFSTSSMAWVRQAPTKGLEWVATISSSGEYTYYRDSVKGRFTISRDNAKSTLYLQMNSLRSEDTATYYCTRGVLYWGQGVMVTVSS
VL: MAPVQLLGLLLLCLPAMRCDIQMTQSPSLLSASVGDRVTLNCKSSQNIYKNLNWYQQKLGEPPKLLIHYTDNLQAGIPSRFSGSGSGTDYTLTISSLHPDDVATYFCFQYNRGPTFGAGTKLELK
modifications: heavy chain variable region for mouse volociximab analog; light chain variable region for mouse volociximab analog
